# Positions count from the first letter of the chain named.
# B1: recombinant rat gremlin-1 with C-terminal hexa-histidine tag (pcDNA3-Gremlin-1-HisTag) (natural protein, UniProt O35793 25-184, looked up)
# chain: KKKGSQGAIPPPDKAQHNDSEQTQSPPQPGSRTRGRGQGRGTAMPGEEVLESSQEALHVTERKYLKRDWCKTQPLKQTIHEEGCNSRTIINRFCYGQCNSFYIPRHIRKEEGSFQSCSFCKPKKFTTMMVTLNCPELQPPTKKKRVTRVKQCRCISIDLD
# modifications: N-glycosylated in part (glycosylated ~30–45%, non-glycosylated ~70–55% of the protein)
# notes: gremlin-1, rat; secreted protein; the 0.8–0.9 M NaCl heparin-sepharose fractions hold the dimer; also called IMAC-purified gremlin; IMAC gremlin; source: HEK293T, transiently transfected, secreted into the supernatant; purified by IMAC (Ni2+ column), when indicated followed by heparin-sepharose chromatography; not shown: His6, C-terminal, kept
# B2: 10xhis-tagged gremlin expressed in murine myeloma cells (recombinant human gremlin-1 purchased from R&D) (natural protein, UniProt O60565 25-184, looked up)
# chain: B1 chain with P27Q, T33N
# notes: gremlin-1, human; No catalogue number is printed; source: bought: R&D; expressed in murine myeloma cells, IMAC-purified
# Assays:
# [1] = molecular target: the molecule itself; experiment: non-reducing SDS-PAGE with anti-gremlin Western blot; IMAC-purified gremlin (250 mM imidazole eluate), SDS-PAGE without DTT; shows disulfide-bound dimer beside monomer
# [2] = molecular target: the molecule itself; experiment: non-reducing SDS-PAGE; bought 10xHis-tagged gremlin from murine myeloma cells, several batches (Figure S1); SDS-PAGE under reducing or non-reducing conditions
Protein,dimer vs. monomer ratio [1] [%],stoichiometry N [1],stoichiometry N [2]
B1,~20,2,–
B2,–,–,2

# Reference: PMC8835488, “Production and Biochemical Characterization of Dimeric Recombinant Gremlin-1” (International Journal of Molecular Sciences, 2022)
